Measured values taken from paper PMC4936022, “Epigenetic silencing of serine protease HTRA1 drives polyploidy”.

Key:
[1] = biological target: T1, MBD2b (MBD2 lacking the N-terminal 149 residues) (UniProt Q9UBB5 150-411); test: EMSA; 70 pmol each, equimolar; 5 mM Mg2+; EMSA: 50 mM Tris, 5 mM MgCl2, 10 mM DTT, pH 7.5, 5 min, RT, 10 ul, 12% gel, ethidium bromide; protease protection: 50 mM Tris, 5 mM MgCl2, pH 7.5, 10 min RT with DNA, then trypsin 20 min 37 C; conditions: protein: recombinant; tags: 6His; label: none (ethidium bromide stain); blunt
T1 sequence (Q9UBB5 150-411): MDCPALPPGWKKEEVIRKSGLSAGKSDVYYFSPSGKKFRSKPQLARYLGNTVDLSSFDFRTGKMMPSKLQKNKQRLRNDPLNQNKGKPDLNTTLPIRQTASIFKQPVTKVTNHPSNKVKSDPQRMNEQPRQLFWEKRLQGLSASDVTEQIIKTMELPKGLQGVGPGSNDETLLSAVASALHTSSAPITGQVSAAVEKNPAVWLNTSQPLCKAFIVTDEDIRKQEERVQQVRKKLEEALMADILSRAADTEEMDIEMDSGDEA

[2] = biological target: T1, MBD2b (MBD2 lacking the N-terminal 149 …); test: EMSA; 70 pmol each, equimolar; 5 mM Mg2+; 1:1 stoichiometry; EMSA: 50 mM Tris, 5 mM MgCl2, 10 mM DTT, pH 7.5, 5 min, RT, 10 ul, 12% gel, ethidium bromide; protease protection: 50 mM Tris, 5 mM MgCl2, pH 7.5, 10 min RT with DNA, then trypsin 20 min 37 C; conditions: protein: recombinant; tags: 6His; label: none (ethidium bromide stain); blunt

B1: HTRA1 promoter 12-mer, unmethylated (dsDNA)
DNA 1: CTCAGCGAGAGA
DNA 2: TCTCTCGCTGAG
- binding result [1]: no binding

B2: HTRA1 promoter 12-mer, methylated (dsDNA)
DNA 1: CTCAGCGAGAGA
DNA 2: TCTCTCGCTGAG
modifications: 5-methyl-dC at position 6 of the reverse strand (TCTCT-5mC-GCTGAG); forward-strand methylation not visible in the material (line truncated), probably 5mC at position 6
- binding result [2]: binds
